# Laboratory results as given in patent US20190300590A1 (PROTAGONIST THERAPEUTICS, published 2019).
# *1 amine or outer side, *2 acyl side, *3 side chain or, on linkers, in order; H or OH if unused. Bridges are numbered along the chain shown (N, C = ends). [ ]: non-standard residue; d: D form. Phe(4-(2-acetylaminoethoxy)) = 4-(2-acetamidoethoxy)-phenylalanine, CC(=O)NCCOc1ccc(C[C@H](N[*:1])C(=O)[*:2])cc1; 6‑amino‑1,4‑diazepane‑2,5‑dione = C-terminal 6-amino-1,4-diazepane-2,5-dione group; Abu(4-yl) = O=C([C@H](CC[*:3])N[*:1])[*:2]; 2Nal = N[C@@H](Cc1ccc2ccccc2c1)C(=O)O; AEF = NCCOc1ccc(C[C@H](N)C(=O)O)cc1; αMeL = CC(C)C[C@](C)(N)C(=O)O; Suc = O=C(CCC(=O)[*:2])[*:1]; hLeu = CC(C)CC[C@H](N)C(=O)O; αMeK = C[C@](N)(CCCCN)C(=O)O; Dab = NCC[C@H](N)C(=O)O; Abu = CC[C@H](N)C(=O)O; Aib = CC(C)(N)C(=O)O; βAla = NCCC(=O)O
# T1: IL23R_huFC (human, UniProt Q5VWK5 24-353)
# T1 sequence (looked up): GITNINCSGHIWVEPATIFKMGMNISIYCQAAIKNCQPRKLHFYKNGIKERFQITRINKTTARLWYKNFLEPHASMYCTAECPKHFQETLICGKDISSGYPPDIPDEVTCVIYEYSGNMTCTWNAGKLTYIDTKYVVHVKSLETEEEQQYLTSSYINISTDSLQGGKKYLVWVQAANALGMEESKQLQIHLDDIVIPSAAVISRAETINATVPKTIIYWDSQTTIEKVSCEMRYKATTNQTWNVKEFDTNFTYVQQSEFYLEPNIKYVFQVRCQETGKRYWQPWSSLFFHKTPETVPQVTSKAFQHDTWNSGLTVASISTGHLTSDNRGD
# T2: IL-23R on human cells (IL-23R-expressing DB cells; human NK cells) (human, UniProt Q5VWK5 24-629)
# T2 sequence (looked up): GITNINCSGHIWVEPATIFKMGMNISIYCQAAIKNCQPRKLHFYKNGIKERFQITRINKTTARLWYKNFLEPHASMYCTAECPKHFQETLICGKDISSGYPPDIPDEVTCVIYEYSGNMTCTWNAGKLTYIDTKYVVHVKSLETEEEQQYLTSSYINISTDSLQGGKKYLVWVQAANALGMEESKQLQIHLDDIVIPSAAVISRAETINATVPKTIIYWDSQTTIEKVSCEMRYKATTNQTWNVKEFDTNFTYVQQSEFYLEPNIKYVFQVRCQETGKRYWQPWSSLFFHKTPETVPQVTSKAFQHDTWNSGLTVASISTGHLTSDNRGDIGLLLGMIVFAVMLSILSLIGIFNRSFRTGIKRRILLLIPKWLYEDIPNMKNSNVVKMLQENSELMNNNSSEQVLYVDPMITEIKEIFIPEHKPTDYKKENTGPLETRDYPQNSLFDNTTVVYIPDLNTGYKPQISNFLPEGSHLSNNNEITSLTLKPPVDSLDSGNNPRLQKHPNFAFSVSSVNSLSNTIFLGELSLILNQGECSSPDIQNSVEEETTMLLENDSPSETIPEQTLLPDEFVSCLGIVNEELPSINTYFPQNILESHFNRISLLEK
# B1: Succicinyl-Cyclo-[[Abu]-QTWQC]-[Phe[4-(2-aminoethoxy)]]-[2-Nal]-[α-MeLys]-[Lys(Ac)]-NG-NH2 (peptide)
# peptide: Suc-[Abu]QTWQC[AEF][2Nal][αMeK]K(Ac)NG-NH2
# modifications: thioether 1-6
# B2: Ac-Cyclo-[[Abu]-QTWQC]-[Phe[4-(2-aminoethoxy)]]-[2-Nal]-[α-MeLys]-[Lys(Ac)]-NG-NH2 (peptide)
# peptide: Ac-[Abu]QTWQC[AEF][2Nal][αMeK]K(Ac)NG-NH2
# modifications: thioether 1-6
# B3: Ac-Cyclo-[[Abu]-QTWQC]-[Phe[4-(2-(acetyl-aminoethoxy)]]-[2-Nal]-[α-MeLys(Ac)]-ENG-NH2 (peptide)
# peptide: Ac-[Abu]QTWQC[Phe(4-(2-acetylaminoethoxy))][2Nal][αMeK](Ac)ENG-NH2
# modifications: thioether 1-6
# B4: Ac-Cyclo-[[Abu]-QTWQC]-[Phe[4-(2-aminoethoxy)]]-[2-Nal]-[α-MeLeu]-[Lys(Ac)]-NN-NH2 (peptide)
# peptide: Ac-[Abu]QTWQC[AEF][2Nal][αMeL]K(Ac)NN-NH2
# modifications: thioether 1-6
# B5: Ac-Cyclo-[[Abu]-QTWQC]-[Phe[4-(2-aminoethoxy)]]-[2-Nal]-[hLeu]-[Lys(Ac)]-N-[βAla]-NH2 (peptide)
# peptide: Ac-[Abu]QTWQC[AEF][2Nal][hLeu]K(Ac)N[βAla]-NH2
# modifications: thioether 1-6
# B6: Ac-Cyclo-[[Abu]-QTWQC]-[Phe[4-(2-aminoethoxy)]]-[2-Nal]-[α-MeLys]-ENG-NH2 (peptide)
# peptide: Ac-[Abu]QTWQC[AEF][2Nal][αMeK]ENG-NH2
# modifications: thioether 1-6
# B7: Ac-Cyclo-[[Abu]-QTWQC]-[Phe[4-(2-(acetyl-aminoethoxy)]]-[2-Nal]-[α-MeLys(Ac)]]-ENN-NH2 (peptide)
# peptide: Ac-[Abu]QTWQC[Phe(4-(2-acetylaminoethoxy))][2Nal][αMeK](Ac)ENN-NH2
# modifications: thioether 1-6
# B8: Ac-Cyclo-[[Abu]-QTWQC]-[Phe[4-(2-(acetyl-aminoethoxy)]]-[2-Nal]-[α-MeLys(Ac)]-ENQ-NH2 (peptide)
# peptide: Ac-[Abu]QTWQC[Phe(4-(2-acetylaminoethoxy))][2Nal][αMeK](Ac)ENQ-NH2
# modifications: thioether 1-6
# B9: Ac-Cyclo-[[Abu]-QTWQC]-[Phe[4-(2-aminoethoxy)]]-[2-Nal]-[α-MeLeu]-ENN-NH2 (peptide)
# peptide: Ac-[Abu]QTWQC[AEF][2Nal][αMeL]ENN-NH2
# modifications: thioether 1-6
# B10: Ac-E-Cyclo-[[Abu]-QTWQC]-[Phe[4-(2-aminoethoxy)]]-[2-Nal]-[α-MeLys]-ENN-NH2 (peptide)
# peptide: Ac-E[Abu(4-yl)]QTWQC[AEF][2Nal][αMeK]ENN-NH2
# modifications: thioether 2-7
# SMILES: CC(=O)N[C@@H](CCC(=O)O)C(=O)N[C@H]1CCSC[C@@H](C(=O)N[C@@H](Cc2ccc(OCCN)cc2)C(=O)N[C@@H](Cc2ccc3ccccc3c2)C(=O)N[C@@](C)(CCCCN)C(=O)N[C@@H](CCC(=O)O)C(=O)N[C@@H](CC(N)=O)C(=O)N[C@@H](CC(N)=O)C(N)=O)NC(=O)[C@H](CCC(N)=O)NC(=O)[C@H](Cc2c[nH]c3ccccc23)NC(=O)[C@H]([C@@H](C)O)NC(=O)[C@H](CCC(N)=O)NC1=O
# B11: Ac-Leu-Cyclo-[[Abu]-QTWQC]-[Phe[4-(2-aminoethoxy)]]-[2-Nal]-[α-MeLys]-ENN-NH2 (peptide)
# peptide: Ac-L[Abu(4-yl)]QTWQC[AEF][2Nal][αMeK]ENN-NH2
# modifications: thioether 2-7
# SMILES: CC(=O)N[C@@H](CC(C)C)C(=O)N[C@H]1CCSC[C@@H](C(=O)N[C@@H](Cc2ccc(OCCN)cc2)C(=O)N[C@@H](Cc2ccc3ccccc3c2)C(=O)N[C@@](C)(CCCCN)C(=O)N[C@@H](CCC(=O)O)C(=O)N[C@@H](CC(N)=O)C(=O)N[C@@H](CC(N)=O)C(N)=O)NC(=O)[C@H](CCC(N)=O)NC(=O)[C@H](Cc2c[nH]c3ccccc23)NC(=O)[C@H]([C@@H](C)O)NC(=O)[C@H](CCC(N)=O)NC1=O
# B12: Ac-F-Cyclo-[[Abu]-QTWQC]]-[Phe[4-(2-aminoethoxy)]]-[2-Nal]-[α-MeLys]-ENN-NH2 (peptide)
# peptide: FXQTWQCFXKENN
# modifications: as bracketed in name; thioether cyclo
# B13: Ac-T-Cyclo-[[Abu]-QTWQC]-[Phe[4-(2-aminoethoxy)]]-[2-Nal]-[α-MeLys]-ENN-NH2 (peptide)
# peptide: TXQTWQCFXKENN
# modifications: as bracketed in name; thioether cyclo
# B14: Ac-Cyclo-[[Abu]-QTWQC]-[Phe[4-(2-aminoethoxy)]]-[2-Nal]-[Aib]-E-[Dab(Ac)]-G-NH2 (peptide)
# peptide: Ac-[Abu]QTWQC[AEF][2Nal][Aib]E[Dab](Ac)G-NH2
# modifications: thioether 1-6
# B15: Ac-Cyclo-[[Abu]-QTWQC]-[Phe[4-(2-(acetyl-aminoethoxy)]]-[2-Nal]-[α-MeLys(Ac)]-[Lys(Ac)]-NG-NH2 (peptide)
# peptide: Ac-[Abu]QTWQC[Phe(4-(2-acetylaminoethoxy))][2Nal][αMeK](Ac)K(Ac)NG-NH2
# modifications: thioether 1-6
# B16: Ac-Cyclo-[[Abu]-QTWQC]-[Phe[4-(2-aminoethoxy)]]-W-[α-MeLys]-[Lys(Ac)]-[6-amino-1,4-diazepane-2,5-dione]-NH2 (peptide)
# peptide: Ac-[Abu]QTWQC[AEF]W[αMeK]K(Ac)-{6‑amino‑1,4‑diazepane‑2,5‑dione-NH2}
# modifications: thioether 1-6
# Molecular target: Rat IL-23R_huFC (rat)
# Experiment: rat ELISA vs IL-23
row,IC50 [nM],Binder
1,< 10,B1
2,< 10,B2
3,< 10,B3
4,< 10,B4
5,< 10,B5
6,< 10,B6
7,< 10,B7
8,< 10,B8
9,< 10,B9
10,< 10,B10
11,< 10,B11
12,< 10,B12
13,< 10,B13
14,< 10,B14
15,< 10,B15

# Molecular target: T1, IL23R_huFC
# Experiment: human ELISA vs IL-23
row,IC50 [nM],Binder
1,< 10,B4
2,< 10,B5
3,< 10,B7
4,< 10,B8
5,< 10,B9
6,< 10,B10
7,< 10,B11

# Molecular target: T2, IL-23R on human cells …
# Experiment: cell-based or functional assay
row,pStat3 HTRF IC50 [nM],Binder
1,< 10,B16
2,< 10,B3
3,< 10,B4
4,< 10,B5
5,< 10,B6
6,< 10,B7
7,< 10,B8
8,< 10,B9
9,< 10,B10
10,< 10,B11
11,< 10,B14

# Molecular target: T1, IL23R_huFC
# Experiment: human ELISA vs IL-23
# Remark: another data set of the same source
row,IC50 [nM],Binder
1,25 to 100,B16
